Experiments:
Assay in all cases: EMSA
[1] = test system: TilS WT (Burkholderia cenocepacia HI2424); settings: 10 mM Mg2+; unmodified in vitro transcript; EMSA: 3.5 nM 32P-tRNA, 220 nM-39.0 µM TilS, 100 mM Tris-HCl pH 7.8, 5 mM DTT, 10 mM MgCl2, 10 mM KCl, 10% glycerol, 37 C, 30 min; native 10% PAGE
[2] = test system: TilS N274Y (Burkholderia cenocepacia HI2424); settings: unmodified in vitro transcript; EMSA: 3.5 nM 32P-tRNA, 220 nM-39.0 µM TilS, 100 mM Tris-HCl pH 7.8, 5 mM DTT, 10 mM MgCl2, 10 mM KCl, 10% glycerol, 37 C, 30 min; native 10% PAGE
[3] = test system: TilS A244T (Burkholderia cenocepacia HI2424); settings: unmodified in vitro transcript; EMSA: 3.5 nM 32P-tRNA, 220 nM-39.0 µM TilS, 100 mM Tris-HCl pH 7.8, 5 mM DTT, 10 mM MgCl2, 10 mM KCl, 10% glycerol, 37 C, 30 min; native 10% PAGE
[4] = test system: TilS N445K (Burkholderia cenocepacia HI2424); settings: unmodified in vitro transcript; EMSA: 3.5 nM 32P-tRNA, 220 nM-39.0 µM TilS, 100 mM Tris-HCl pH 7.8, 5 mM DTT, 10 mM MgCl2, 10 mM KCl, 10% glycerol, 37 C, 30 min; native 10% PAGE
[5] = test system: TilS P421L (Burkholderia cenocepacia HI2424); settings: unmodified in vitro transcript; EMSA: 3.5 nM 32P-tRNA, 220 nM-39.0 µM TilS, 100 mM Tris-HCl pH 7.8, 5 mM DTT, 10 mM MgCl2, 10 mM KCl, 10% glycerol, 37 C, 30 min; native 10% PAGE

Substance: tRNAIle2 (CAU)
- Kd [1]: 2.6 µM
- Kd [2]: 3.3 µM
- Kd [3]: 4.6 µM
- Kd [4]: 3.1 µM
- Kd [5]: 4.5 µM
